The source of these data is article doi:10.1101/2023.02.22.529570 (bioRxiv, 2023).

The assay has as its target T1, His-NEON-EBP50 PDZ1PDZ2 (human, UniProt O14745-1 1-298).
T1 sequence: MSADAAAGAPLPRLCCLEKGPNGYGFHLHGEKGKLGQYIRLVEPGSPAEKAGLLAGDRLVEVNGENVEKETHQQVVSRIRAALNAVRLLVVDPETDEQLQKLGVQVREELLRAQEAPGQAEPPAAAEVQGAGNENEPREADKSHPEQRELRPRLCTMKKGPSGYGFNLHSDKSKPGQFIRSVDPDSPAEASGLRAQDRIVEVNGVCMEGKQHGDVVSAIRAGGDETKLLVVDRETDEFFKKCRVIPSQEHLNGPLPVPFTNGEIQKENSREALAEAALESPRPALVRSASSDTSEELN
Put plainly: pull-down.

B1: GST-CDHR5 CD (domain or fragment)
chain: RLKCCCGKAPEPQPQGFDNQAFLPDHKANWAPVPSPTHDPKPAEAPMPAEPAPPGPASPGGAPEPPAAARAGGSPTAVRSILTKERRPEGGYKAVWFGEDIGTEADVVVLNAPTLDVDGASDSGSGDEGEGAGRGGGPYDAPGGDDSYI
B1: the binding result is listed as “binds”.
